# Measurements published in IntAct's records for PubMed 16777958.
# B1: Activated CDC42 kinase 1 (Mus musculus), O54967 (parent)
# chain: MQPEEGTGWLLELLSEVQLQQYFLRLRDDLNITRLSHFEYVKNEDLEKIGMGRPGQRRLWEAVKRRKAMCKRKSWMSKVFSGKRLEAEFPSQHSQSTFRKPSPTPGSLPGEGTLQSLTCLIGEKDLRLLEKLGDGSFGVVRRGEWDAPAGKTVSVAVKCLKPDVLSQPEAMDDFIREVNAMHSLDHRNLIRLYGVVLTLPMKMVTELAPLGSLLDRLRKHQGHFLLGTLSRYAVQVAEGMAYLESKRFIHRDLAARNLLLATRDLVKIGDFGLMRALPQNDDHYVMQEHRKVPFAWCAPESLKTRTFSHASDTWMFGVTLWEMFTYGQEPWIGLNGSQILHKIDKEGERLPRPEDCPQDIYNVMVQCWAHKPEDRPTFVALRDFLLEAQPTDMRALQDFEEPDKLHIQMNDVITVIEGRAENYWWRGQNTRTLCVGPFPRNVVTSVAGLSAQDISQPLQNSFIHTGHGDSDPRHCWGFPDRIDELYLGNPMDPPDLLSVELSTSRPTQHLGRVKREPPPRPPQPAIFTQKTTYDPVSEDPDPLSSDFKRLGLRKPALPRGLWLAKPSARVPGTKADRSSGGEVTLIDFGEEPVVPTPRPCAPSLAQLAMDACSLLDKTPPQSPTRALPRPLHPTPVVDWDARPLPPPPAYDDVAQDEDDFEVCSINSTLVGAGLPAGPSQGETNYAFVPEQAQMPPALEDNLFLPPQGGGKPPSSVQTAEIFQALQQECMRQLQVPTGQLTPSPTPGGDDKPQVPPRVPIPPRPTRPRVELSPAPSGEEETSRWPGPASPPRVPPREPLSPQGSRTPSPLVPPGSSPLPHRLSSSPGKTMPTTQSFASDPKYATPQVIQAPGPRAGPCILPIVRDGRKVSSTHYYLLPERPPYLERYQRFLREAQSPEEPAALPVPPLLPPPSTPAPAAPTATVRPMPQAAPDPKANFSTNNSNPGARPPSLRAAARLPQRGCPGDGQEAARPADKVQMLQAMVHGVTTEECQAALQSHSWSVQRAAQYLKVEQLFGLGLRPRVECHKVLEMFDWNLEQAGCHLLGSCGPAHHKR
# Variants of: B1
# Details: with NCK1, P16333-1
row,effect of a mutation on the interaction,Variant
1,disrupting interaction strength,K158A
